Source: publication doi:10.1101/2021.02.05.428650 (bioRxiv, 2021)
Values joined by “and” are separate entries in the source; they are usually repeats but may differ in a detail not shown here. Equal entries are not always repeated.

Target: the molecule itself
Experiment: SDS-PAGE and Western blot after detergent removal

MIELSLIDFYLCFLAFLLFLVLIMLIIFWFSLELQDHNETCHA (natural protein) [ORF7b from SARS-CoV-2]
stoichiometry N: ≤ 10 and 5
